Publication PMC4627693 (Chemistry & biology, 2014)
Where no end group is shown, it is not given here. The star is where a group is joined. Biotin = O=C1N[C@H]2[C@H](CS[C@H]2CCCCC(=O)*)N1; code Z = ethylene glycol unit

Target: c-Src tyrosine kinase (recombinant) (UniProt P00523 1-533)
Assay: cross-linking

{Biotin-code Z-code Z}-ICGEFRRR [Cys-Srctide (Biotin-ZZICGEFRRR)]
EC50: 63 µM
